Test results: patent US20110151450
Changes are numbered by the printed parent chain.

Key:
Assay in all cases: cleavage_in_vitro
[1] = test system: T1, BsrFI-WT (Bacillus stearothermophilus); details: NEB4, relative activity 50%
T1 sequence: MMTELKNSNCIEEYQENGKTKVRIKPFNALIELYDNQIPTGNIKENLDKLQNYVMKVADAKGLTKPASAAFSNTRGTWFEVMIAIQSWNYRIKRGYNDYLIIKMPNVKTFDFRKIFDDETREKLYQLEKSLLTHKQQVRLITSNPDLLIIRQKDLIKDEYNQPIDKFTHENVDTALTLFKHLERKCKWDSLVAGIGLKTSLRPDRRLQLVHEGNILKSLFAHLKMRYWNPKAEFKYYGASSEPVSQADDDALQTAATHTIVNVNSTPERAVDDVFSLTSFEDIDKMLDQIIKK

[2] = test system: BsrDI-HF (BsrDIA + mutant BsrDIB) Q230A/K363A (BsrDIB) (Bacillus stearothermophilus); details: NEB4, relative activity 100%
[3] = test system: T2, KasI-WT (Kluyvera ascorbata); details: NEB4, relative activity 100%
T2 sequence: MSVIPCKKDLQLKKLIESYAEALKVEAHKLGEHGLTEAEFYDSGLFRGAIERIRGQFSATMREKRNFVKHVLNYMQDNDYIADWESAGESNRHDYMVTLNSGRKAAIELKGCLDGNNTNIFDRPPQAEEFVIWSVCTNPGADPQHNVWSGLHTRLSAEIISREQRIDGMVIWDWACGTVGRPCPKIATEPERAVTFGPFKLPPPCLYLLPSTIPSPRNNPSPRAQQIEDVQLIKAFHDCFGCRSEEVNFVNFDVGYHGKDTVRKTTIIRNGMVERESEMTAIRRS

[4] = test system: T3, AatII-WT (Acetobacter aceti); details: NEB4, relative activity 50%
T3 sequence: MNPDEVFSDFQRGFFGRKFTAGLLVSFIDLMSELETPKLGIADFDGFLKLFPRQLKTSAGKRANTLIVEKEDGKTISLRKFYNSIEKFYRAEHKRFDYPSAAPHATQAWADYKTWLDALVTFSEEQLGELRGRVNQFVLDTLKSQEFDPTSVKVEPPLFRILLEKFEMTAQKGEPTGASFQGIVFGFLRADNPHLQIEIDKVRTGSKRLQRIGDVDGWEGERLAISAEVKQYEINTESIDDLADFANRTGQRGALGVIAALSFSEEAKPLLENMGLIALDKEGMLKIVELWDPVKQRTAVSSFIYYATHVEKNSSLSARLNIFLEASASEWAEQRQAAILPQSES

[5] = test system: T4, KasI-HF N251A (Kluyvera ascorbata); details: NEB4, relative activity 100%
T4 sequence: T2 sequence with N251A

[6] = test system: T5, BstNI-WT (Bacillus stearothermophilus); details: NEB4, relative activity 50%
T5 sequence: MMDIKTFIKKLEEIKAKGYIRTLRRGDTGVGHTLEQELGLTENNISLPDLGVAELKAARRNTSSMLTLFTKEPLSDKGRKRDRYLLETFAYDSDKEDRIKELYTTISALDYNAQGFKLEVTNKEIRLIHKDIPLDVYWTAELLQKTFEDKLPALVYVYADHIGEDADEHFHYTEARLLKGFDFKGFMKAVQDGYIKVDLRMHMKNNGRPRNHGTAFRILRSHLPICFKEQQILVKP

[7] = test system: BsrDI-WT (BsrDIA + BsrDIB) (Bacillus stearothermophilus); details: NEB4, relative activity 25%
[8] = test system: T6, BstNI-HF G26T (Bacillus stearothermophilus); details: NEB4, relative activity 100%
T6 sequence: T5 sequence with G26T

[9] = test system: T7, AatII-HF N235A (Acetobacter aceti); details: NEB4, relative activity 100%; Table 1 lists pXba
T7 sequence: T3 sequence with N235A

[10] = test system: T8, BsaJI-WT (Bacillus stearothermophilus); details: NEB4, relative activity 100%
T8 sequence: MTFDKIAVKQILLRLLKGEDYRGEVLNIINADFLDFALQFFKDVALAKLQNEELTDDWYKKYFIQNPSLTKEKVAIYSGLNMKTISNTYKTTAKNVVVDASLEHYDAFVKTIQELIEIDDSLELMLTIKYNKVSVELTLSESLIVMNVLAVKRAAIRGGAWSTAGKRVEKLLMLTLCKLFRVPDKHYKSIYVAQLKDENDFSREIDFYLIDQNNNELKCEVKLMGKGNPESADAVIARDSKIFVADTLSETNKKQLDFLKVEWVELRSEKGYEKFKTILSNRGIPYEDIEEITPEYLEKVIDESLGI

[11] = test system: T9, BsaJI-HF D200A (Bacillus stearothermophilus); details: NEB4, relative activity 100%
T9 sequence: T8 sequence with D200A

[12] = biological target: KpnI-HF D16N/D148E (Klebsiella pneumoniae) (UniProt P25237); details: NEB4, relative activity 100%
[13] = biological target: KpnI-WT (Klebsiella pneumoniae) (UniProt P25237); details: NEB4, relative activity 50%
[14] = test system: StyI-WT (Salmonella typhi); details: NEB4, relative activity 25%
[15] = test system: StyI-HF K75A (Salmonella typhi); details: NEB4, relative activity 50%

Substance: pBR322 plasmid
- activity (fidelity index) [1]: 16
- activity (fidelity index) [2]: > 1000
- activity (fidelity index) [3]: 4
- activity (fidelity index) [4]: 16
- activity (fidelity index) [5]: > 16000
- activity (fidelity index) [6]: 4
- activity (fidelity index) [7]: 0.5
- activity (fidelity index) [8]: 500
- activity (fidelity index) [9]: > 1000
- activity (fidelity index) [10]: 64
- activity (fidelity index) [11]: > 4000

Substance: pXba plasmid, KpnI sites
- activity (fidelity index) [12]: > 1e+06
- activity (fidelity index) [13]: 4

Substance: lambda DNA, StyI sites
- activity (fidelity index) [14]: 16
- activity (fidelity index) [15]: 4000
